This note sets out measurements from paper PMC10516644.

This assay concerns the target MSL2-FLAG (Drosophila) (UniProt P50534). In words: co-IP.

Bounds are passed on as bounds.

Chain of UniProt P50534 (P50534 whole entry): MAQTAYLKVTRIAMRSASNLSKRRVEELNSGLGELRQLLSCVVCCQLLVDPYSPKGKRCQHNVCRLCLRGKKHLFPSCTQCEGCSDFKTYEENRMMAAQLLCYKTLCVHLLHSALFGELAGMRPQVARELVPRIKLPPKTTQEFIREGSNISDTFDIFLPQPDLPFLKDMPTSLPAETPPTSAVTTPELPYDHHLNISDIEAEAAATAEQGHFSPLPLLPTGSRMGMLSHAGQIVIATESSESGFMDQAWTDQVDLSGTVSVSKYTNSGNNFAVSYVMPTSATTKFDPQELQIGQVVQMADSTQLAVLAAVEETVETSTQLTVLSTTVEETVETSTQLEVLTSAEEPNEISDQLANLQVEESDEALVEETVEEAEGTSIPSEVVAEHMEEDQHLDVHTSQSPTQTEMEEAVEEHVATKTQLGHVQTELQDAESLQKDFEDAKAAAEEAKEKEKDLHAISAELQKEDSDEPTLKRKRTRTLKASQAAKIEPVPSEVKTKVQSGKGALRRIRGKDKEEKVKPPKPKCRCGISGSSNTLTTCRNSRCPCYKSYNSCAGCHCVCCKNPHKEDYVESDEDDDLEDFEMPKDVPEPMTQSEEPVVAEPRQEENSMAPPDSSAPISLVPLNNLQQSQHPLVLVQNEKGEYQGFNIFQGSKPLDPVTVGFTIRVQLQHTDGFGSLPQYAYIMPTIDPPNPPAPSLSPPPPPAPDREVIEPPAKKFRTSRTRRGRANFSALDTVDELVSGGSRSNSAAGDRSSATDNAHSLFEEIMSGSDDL

Consider “CLAMP-ΔZF1-FLAG (from UniProt Q9V9N4 1-561) (natural protein)”, for which the percent co-immunoprecipitated (bound fraction normalised to input) is < 1%.
